Results published in the DeepSol protein solubility set.

Assay: soluble on expression in E. coli; label from the status in PepcDB or PDB records

Sequence | soluble on expression in E. coli
MKSRLPFRYLEPTFCAGLLDDPVLLVNVRPLGRSILVDCGQIHHLAKRVLKSIDAVFVSHAHMDHFMGLDTLVRHIHVSPRTVELFGPPGIARKVAAKLAGYDWNLTESYWCTFRVSEVHPERIVRFTFPGSEGFPCLPEEETTREGTEIFRNDFLAVDADLCDHNTLPTLVFRITERPTFWIDEAKVDQEGLVPGEWLRELKHRFYRGRLDGKTITVPVRTAGDTVAQRIREGRELFEAIRRSQEPASIGYLTDIGAGDTNLATVRRLLAGVTLLACECSFLAADVAKARTSHHLCTADVSALAREIRPGWLLPMHLSKSYNTKGHLLYRELTLAPETRLIRLPEHLTPRPLLPGEFPGLWKIAEMAGDPNSLEHHHHHH | not soluble
MGSDKIHHHHHHMIKRRYMRTRQLKPGMIIDQVIKDPTGRNLVVQGSAIDDYIISSLLKLGIMSVYIREGNADPDDPDAILSPKAAAMVKQLRTDDRSKVTLSDSVRQRVSTGVQYIFNNTNSEELTQATNQIADSLMEAINENDAIAVDISSLKTSDEYTFKHSVDVATISMILAKQMKLPDNEIHDIGVSGLLHDIGKTMIPNEILNKPGRLTDDEFNIMKKHSVYGYNMLKDRKDLNNSILMGVLQHHERIDGTGYPLGFDAPKICQFAKILSVADVYDALVTKRPYKDALSQRDAVEMLMSMTNQLDIGVMRAFMSSMILYPVDSIVQLSNGEKARVVKNSEYYILRPTVVGVDSGRVYNLGNDLKCASIIIL | not soluble
MGHHHHHHSHMLKKMGEAVARVARKVNETVESGSDTLDLAECKLVSFPIGIYKVLRNVSGQIHLITLANNELKSLTSKFMTTFSQLRDVPVEKLAAMPALRSINLRFNPLNAEVRVIAPPLIKFDMLMSPEGARAPLP | not soluble
MGHHHHHHSHMIVNVIGAGLAGSEVAYNLGKRGIRVRLFEMRPKKMTEVHKTGYFAELVCSNSLKSEDITNAEGLLKAEMRLMGSITLEAAEKARVPSGKALAVDRNIFAKEVTEVIERLESVEIIREEVTEFDPEEGIWVVATGPATSDGLLPFLKKLLGDDLLFFFDAVSPIVTFESIDMECAFWGDRFGKGKDYINCPLTKEEYEEFWKALVEAEVIEMEDFDRKLLFERCQPIEEIARSGKDALRYGPLRPTGLVDPRTGKEPYAVVQLRREDKEGRFYSLVGFQTRLKWSEQKRVLRKIPCLRNAEIVRYGVMHRNVYINSPKLLDIFFRLKKHPNIFFAGQITGVEGYMESAASGIYVAYNVHRILKGLSPLKLPEETMMGALFSYIIEKVEGDLKPMYANFGLLPPLKVRVKDKFEKRKKLAERAIETMKKFLEENPW | soluble
NPTEQLLTRFNQAAQGDTGLVDTVHDELSQLVQKQGATPVTLVYLGSSETLQGRDAFMPWNKMKFTERGLATIQKGLDLMANQPMPIQEQQRLQGLPEYQ | not soluble
EHLPKLQPRPYSCASSSLFHPGKLHFVFNIVEFLSTATTEVLRKGVCTGWLALLVASVLQPNIHASHEDSGKALAPKISISPRTTNSFHLPDDPSIPIIMVGPGTGIAPFIGFLQHREKLQEQHPDGNFGAMWLFFGCRHKDRDYLFRKELRHFLKHGILTHLKVSFSRDAPVGEEEAPAKYVQDNIQLHGQQVARILLQENGHIYVCGDAKNMAKDVHDALVQIISKEVGVEKLEAMKTLATLKEEKRYLQDIWS | soluble
AHHHHHHGSGKTGIEYFDNFILKDGFPDGSLILVAGEPGAGKTIFSATYLYNGAKKFGEKGVYISLAETKREFYEAMKQLGMDFEELEKKGLFRFIDLVTVSRGAIEKEIQFLMSEISSFQPKRVVIDSISVFAQILGLEKTRVFLHTMLGRFIKAYNATALLIAEKPMGSKTIGHGVEEFVVDGVIILKYKSLGEITRRVMEIPKMRRRSVERAEYEYVITKNGIEFLELPDLVRDKGEYTLEKITTGIEKLDKMLDGGYTRDQMF | soluble
MAHHHHHHMYVAIYNIGKKKNIGSIVRSCVAFRVSKIFVVSRKKNQVNFFGHMGTCEYITIEYFSSMKELKTHLRDNGILLYACEITSSAVPVTRRPFENKDTAFLFGNEGTGINDETLSYCDKVVYIPQYGNGTCSLNVSVSCAIILHHFAVWADYPEVGISGKKFVLNKCATKLERYLNPSDDLLRQISEKRAQRAATKLASPDWAAPHFADPSPDLFPG | not soluble
MKKLMLGNEAVARGAYEAGVLVATAYPGTPSTEITEYISKYSEINSEWSVNEKVALEVGIGSAIAGARTIVSMKHVGLNVAADPLMTVAYTGINAGLLIVVADDPSMHSSQNEQDTRYYGMFAKIPVLEPSDSQECKDFVKLGFEISEKFDTPVILRLSTRVSHSQSLVELEEKESIELKPYD | not soluble
MAHHHHHHMKARSSRPVTTITVTSEETIQTHNARDTPRTFEYKTKRNELMRRLEEMRNALEEDNNNNNKGSRVKLCYYDITFNCRDPVDVTVMSGFQRFEGLGDTLSGHMKCEEDDRHKFVGLIKEIIQLDVSHRARNMDKSEIAVVRIAANFKELNSTFTRSAATLL | not soluble
MQPYTAPSEIALRQLDYFADKHVLVAGEVEDRFPIELRQYCASVSVFTTHYGYYSQLKAYPEITRYFGEQLTADLNADLILLYWPKAKQEAEYLLAMLLAKLGTGTEIVVVGENRSGVKSIEKMFAAYGPIHKYDSARRCSFYWGHCVHTPAAFDIEQWFKSYAVDYQGHELTIRSLPGVFSHGEFDLGSRLLLDTLPPLSGKVIDIGSGAGVLGCVMAKLNPHIELEMTDISALAIRSSQETLVANQLHGHVYPSDMFSDTGHHYNYIVTNPPFHSGLETSYSATERLLAESVDHLASGGSIWVVANSFLKYPPILEQAFGHCDIAAKTNKFAIYHAKK | not soluble
MSLGEETSYCFKEKSRGVLREWYAHNPYPSPREKRELAEATGMTTTQVSNWFKNRRQRDRAAEAKERENTENEGHHHHHH | soluble
MSSSDAFWRMFANKNKGKSNTRSAFQVVKEEQPSTSTEPDDKKPLHHEIAGEMIKNPAKGKRKRVQIKNDEYEQLMMLGVPVRVPRGLSLYSTQKLMIVRILTALKNSQNVLGESPTGSGKTMALLASTCAWLKQYIDEKRESKEKCEIHGFSGKTQVVFTNDIGIPLESKVYEEPPEEEEFIEPVPVKNDKLFEAQWEHDFTPHTPGETPPVTLKEELEPVKKPEPVETKCTCLPRVRIYYGTRTHKQIAQVVKEFSRLPYAKILKHTILASREQSCINPAARKHADISQYCKEVNSAHSIGCSFKSAMKPRFEKALPLRDHLERNGTVVFDMEKIVETLAISYPQLCPYFSTNRILTQDADIIFCPFSYLVDPLIRNSSDVQIRNSIVILDEAHNIEDTCREAASFSFTEKELDDSILSLRIKRKAVDTELDKTGIEEKLLHIPDREVHLKEFRGHLLYLEHLILEMLRWIRQVSTEAKTPARGGQDGVKTCTISSANLFTSLTDPENGVDLFTPPLTPKHAAVAASFSAITKHNEPEMQYFDAFKPSSTAIVCIEKWLYFQSYFGNQQYQSTYRLNISIEPINQNGRFNHTFDADVSMSTSFGNPRPTTTRSSAGPRNMQYKEENAWLADAAADGDDWKDPSMSETGHKPISEGCKTTISLWCMSPALSFFDAFNETRSIVLASGTLCPMDTLKTELGMEFKQQVEGDQVINKDNIFAAVLPIGPFGNRIQCTYRNTSDPESSFYCELGAIIKYVCSNVPAGILCFLPSYRVLDQLKQCMIRNSTMRQIEMKKVVLYEPRRSSELTSVMDQFDAAIFDPSRFGANINGSLMFAVFRGKVSEGIDFADDRARVVISVGIPYPNAMDDQVNAKKLYNDQNSKEKGILTGDEWYTTQAYRALNQALGRCLRHKNDWGAMLMIDERLERQTGNLVGGASSARVSKWIRAQLKSYPSFKEFNANFREFIQRRHAVEKAKKENFCE | not soluble
MKIYCCLNTVGFFMDGCGVIPPDSKEITAEHWQSLLKSQAEGGVIDFSVFPPSIKEVIRTHDDEVADANFQKQMLISDATDFINSRQWQGKAALGRLKEDELKQYNLWLDYLEALELVDTSSAPDIEWPTPPAVQARLEHHHHHH | soluble
MSYGLIIVLMIILGIGLWHTKKYHRAVVNQVAHVWITKNAFEHTALGMAIVSPDCRFLKVNRAYGEITGYTRPELLKMAVKELTHPEDQEKDTPYLQEVFAGNIHSFTTVKRYIHKNGSTIWVRSTISAVRTERGNLEHHHHHH | soluble
MSKIARKDVERLIELVGGPDNIASVSHCLTRLRFVLNDTDKADTKQLEALRMVKGCFTNAGQFQVVIGTEVDEVYKVLIELSGKSEASKDESKNAARQNMNIVERGISHLAE | not soluble
MSDRNCYKCQQPGHISRNCPNGESDGGRRGGGGGSTCYNCQETGHFSRDCPKGGSGGGQRGGGGGGGSCYNCGGRGHYSRDCPSARSEGGSGGYGGRGGEGRSFGGQKCYNCGRSGHISRECTESGSAEEKRCYQCQETGHISRDCPSQTN | soluble
MGSDKIHHHHHHMDFIEVYPNAIPDDLCDRLILAFEKHSGVVDGQTGNGVDLEKKISRDLTLDNFTDLQPLKNELLSYTLKGTADYFSQYAMALMGAVAVSVSDEQGQAVTLTPSNFERLGKPRAEALVKYLYRSGSINIQKYQKNKGGYPHWHSEQFPQLSHNEALHRVVLYMFYLNDVEEGGETEFYYQQRKISPKKGTMVIAPAGFTHSHRGNMPISNDKYIATSWVMFNRAEQLYAVYA | not soluble
FGVWVLVPRSFPRCVWFQRSMAVVIRLQGLPIVAGTMDIRHFFSGLTIPDGGVHIVGGELGEAFIVFATDEDARLGMMRTGGTIKGSKVTLLLSSKTEMQNMIELSRRRFETANLDIPPANASRSGPPPSSGMSSRVNLPTTVSNFNNPSPSVVTATTSVHESNKNIQTFSTASVGTAPPNMGASFGSPTFSSTVPSTASPMNTVPPPPIPPIPAMPSLPPMPSIPPIPVPPPVPTLPPVPPVPPIPPVPSVPPMTPLPPMSGMPPLNPPPVAPLPAGMNGSGAPMNLNNNLNPMFLGPLNPVNPIQMNSQSSVKPLPINPDDLYVSVHGMPFSAMENDVRDFFHGLRVDAVHLLKDHVGRNNGNGLVKFLSPQDTFEALKRNRMLMIQRYVEVSPATERQWVAAGGHITFKQNMGPSGQTHPPPQTLPRSKSPSGQKRSRSRSPHEAGFCVYLKGLPFEAENKHVIDFFKKLDIVEDSIYIAYGPNGKATGEGFVEFRNEADYKAALCRHKQYMGNRFIQVHPITKKGMLEKIDMIRKRLQNFSYDQREMILNPEGDVNSAKVCAHITNIPFSITKMDVLQFLEGIPVDENAVHVLVDNNGQGLGQALVQFKNEDDARKSERLHRKKLNGREAFVHVVTLEDMREIEKNPPAQGKKGLKMPVPGNPAVPGMPNAGLPGVGLPSAGLPGAGLPSTGLPGSAITSAGLPGAGMPSAGIPSAGGEEHAFLTVGSKEANNGPPFNFPGNFGGSNAFGPPIPPPGLGGGAFGDARPGMPSVGNSGLPGLGLDVPGFGGGPNNLSGPSGFGGGPQNFGNGPGSLGGPPGFGSGPPGLGSAPGHLGGPPAFGPGPGPGPGPGPIHIGGPPGFASSSGKPGPTVIKVQNMPFTVSIDEILDFFYGYQVIPGSVCLKYNEKGMPTGEAMVAFESRDEATAAVIDLNDRPIGSRKVKLVLG | soluble
MTHLLETKNLSVSFGEHHVIKDVNLIVQKGKLISIIGPNGAGKTTLFNLLSGQISPTKGEVYFKGQEITKLSISDRTRLGIGRSFQLTNIFPELTVLENVRLSVQSFVQDYYSFFPSSAKFKQQVGEARRFLKTVLLQEKEHVLAKDLAHGEKRKLELAMLLALKTDVLLLDEPTAGISVEEVPAILQVIENIKKHPESTIVLIEHKMDMVLGLSDHLIVLFHGELLAEGMPEEIMKDERVQSAYLGGLYSGTITSE | not soluble
NVAYPLGEGLLSFAESLESQKIHFTTEVITSRIEPANRYVAEKLRITPGQDILYLERLRSIGDEKAMLIENRINIELCPGIVEIDFNQHNLFPTIESLSKRKIRYSESRYAARLIGNERGHFLDISEDAPVLHLEQLVFFSRELPVEFGNVWLKGNKYYLGTVLQRRELS | soluble
